Test results taken from patent US20170022281A1 (AbbVie / Abbott, published 2017).
Numbering of substitutions follows the chain as printed.

T1: human PRLR (Biacore antigen) (human, UniProt P16471 25-234, limits assumed)
T1 construct: The construct injected over captured antibody is not described (a soluble form is likely); also called huPRLR
T1 sequence: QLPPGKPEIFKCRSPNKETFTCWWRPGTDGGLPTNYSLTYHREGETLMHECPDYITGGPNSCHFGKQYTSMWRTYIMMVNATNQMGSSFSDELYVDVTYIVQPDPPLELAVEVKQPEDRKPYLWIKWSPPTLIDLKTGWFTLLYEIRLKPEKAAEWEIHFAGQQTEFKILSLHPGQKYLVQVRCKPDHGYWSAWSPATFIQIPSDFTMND

T2: cyno PRLR ECD-his6 protein (cyno)
T2 chain: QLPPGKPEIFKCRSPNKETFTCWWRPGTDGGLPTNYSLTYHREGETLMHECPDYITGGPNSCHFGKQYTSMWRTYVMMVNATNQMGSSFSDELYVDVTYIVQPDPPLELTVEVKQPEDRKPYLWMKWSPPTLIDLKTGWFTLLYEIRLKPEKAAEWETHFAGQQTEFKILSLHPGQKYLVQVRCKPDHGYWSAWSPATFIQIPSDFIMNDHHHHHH

T3: human PRLR ECD-Fc fusion protein (human, UniProt P16471 25-233)
T3 construct: not shown: Fc region (captured by goat anti-human Fc)
T3 sequence: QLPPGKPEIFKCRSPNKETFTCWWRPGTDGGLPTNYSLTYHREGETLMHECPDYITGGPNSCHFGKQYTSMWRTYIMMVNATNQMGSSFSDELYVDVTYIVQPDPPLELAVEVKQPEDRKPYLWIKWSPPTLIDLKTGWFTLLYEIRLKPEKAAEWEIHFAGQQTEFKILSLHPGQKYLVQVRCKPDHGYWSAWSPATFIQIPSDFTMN

T4: human PRLR on cells (human, UniProt P16471 25-622)
T4 sequence: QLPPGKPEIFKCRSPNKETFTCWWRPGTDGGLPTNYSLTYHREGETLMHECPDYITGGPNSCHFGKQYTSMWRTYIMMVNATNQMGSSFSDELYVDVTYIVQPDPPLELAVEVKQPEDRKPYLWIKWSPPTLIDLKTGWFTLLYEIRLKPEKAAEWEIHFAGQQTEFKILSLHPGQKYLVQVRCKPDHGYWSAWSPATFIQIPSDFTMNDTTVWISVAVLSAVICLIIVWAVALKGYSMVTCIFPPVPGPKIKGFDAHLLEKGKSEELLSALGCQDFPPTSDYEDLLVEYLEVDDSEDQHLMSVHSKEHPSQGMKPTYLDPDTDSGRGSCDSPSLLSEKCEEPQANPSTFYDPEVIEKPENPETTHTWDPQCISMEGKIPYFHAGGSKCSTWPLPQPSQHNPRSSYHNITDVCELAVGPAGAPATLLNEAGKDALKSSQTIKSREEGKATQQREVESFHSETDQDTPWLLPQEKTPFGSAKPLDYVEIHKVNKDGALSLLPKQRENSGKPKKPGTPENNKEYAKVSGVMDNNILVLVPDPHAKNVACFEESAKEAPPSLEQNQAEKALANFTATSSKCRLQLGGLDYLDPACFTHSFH

B1: LFA102 (antibody, human IgG1, kappa, V domains shown)
VH: EVQLVESGGGLVQPGGSLRLSCAVSGFTFSSYGMSWVRQAPGKRLEWVATVSSGGTYTYYPDSVKGRFTISRDNSKNTLYLQMNSLRAEDTAMYYCARHRGNYYATYYYAMDYWGQGTLVTVSS
VL: DIVLTQSPDSLAVSLGERATINCKASKSVSTSGYTYMHWYQQKPGQPPKLLIYLASNRESGVPDRFSGSGSGTDFTLTISPVQAEDVATYYCQHSGELPPSFGQGTKLEIKR
notes: humanized IgG1 kappa comparator (WO 2008022295)
B2: chAb5 (antibody, human IgG1, kappa, V domains shown)
VH: QVQLQQPGAELVRPGTSVKLSCKASGYTFTSFWMHWVKQRPGQGLEWIGVIDPSDTYTNYNQKFKGKATLTVDTSSSTAYMQLSSLTSEDSAVYYCARGDYSNWFTYWGQGTLVTVSA
VL: DVVMTQTPLSLPVSLGDQASISCRSSQRLVHSNGNTYLHWYLQKPGQSPKLLIYKVSNRFSGVPDRFSGSGSGTDFTLKISRVEAEDLGVYFCSQSTHVPWTFGGGTKLEIKT
notes: chimeric, murine variable and human G1/kappa constant regions
B3: chAb7 (antibody, human IgG1, kappa, V domains shown)
VH: QVQLQQPGAELVMPGTSVKLSCKASGYTFTSYWIHWVKQRPGQGLEWIGEIDPSDSYTNYNQKFKGKATLTVDRSSSTAYMQLSSLTSEDSAVYYCGRSFFTNWFAYWGQGTLVTVSA
VL: B2 VL with R28S, S81N, W101F, G105S
notes: as for B2
B4: Ab49 (antibody, human IgG1, kappa, V domains shown)
VH: EVQLVQSGAEVKKPGASVKVSCKASGYTFTDYNIHWVRQAPGQGLEWIGYIYPNNDGTGYNQKFKSRATLTVDNSTSTAYMELRSLRSDDTAVYYCARGDGNYVGDMDYWGQGTTVTVSS
VL: DIQMTQSPSSLSASVGDRVTITCRASENIYSYLAWYQQKPGKAPKLLVYNAKTLAEGVPSRFSGSGSGTDFTLTISSLQPEDFATYYCQHHYATPFTFGQGTKLEIKR
notes: humanized from Ab8; G1; also called Ab3 HC.1a and Ab3 LC.1b
B5: Ab48 (antibody, human IgG1, kappa, V domains shown)
VH: B4 VH
VL: B4 VL with A43P
notes: humanized from Ab8; G1; also called Ab3 HC.1a and Ab3 LC.1a
B6: chAb8 (antibody, human IgG1, kappa, V domains shown)
VH: EVQLQQSGPELVKPGASVKISCKASGYTFTDYNIHWVKQSHGKSLEWIGYIYPNNDGTGYNQKFKSKATLTVDNSSSTAYMEVRSLTSEDSAVYYCARGDGNYVGDMDYWGQGTSVTVSS
VL: DIQMTQSPASLSASVGETVTITCRASENIYSYLAWYQQKQGKPPQLLVYNAKTLAEGVPSRFSGGGSGTQFSLKINSLQPEDFGSYYCQHHYATPFTFGSGTKLEIKT
notes: as for B2
B7: chAb6 (antibody, human IgG1, kappa, V domains shown)
VH: QVQLQQPGAELVMPGSSVKLSCKASGYTFTTYWMHWVKQRPGQGLEWIGEIDPSDSYSNYNQKFKDKATLTVDKSSSTAYMQLSSLTSEDSAVYYCARNGGLGPAWFSYWGQGTLVTVSA
VL: DIVMTQSQKFMSTTVGDRVSITCKASQYVGTAVAWYQQKPGQSPKLLIYSASNRYTGVPDRFTDSGSGTDFTLTISNLQSEDLADYFCQQYSSYPWTFGGGTKLEIKT
notes: as for B2

Tests used:
[1] = biological target: T1, human PRLR (Biacore antigen); assay: SPR simultaneous binding; PRLR held by surface mAb LFA102
Protocol: (§1) Running buffer was HBS-EP+ (10 mM Hepes, pH7.4, 150 mM NaCl, 3 mM EDTA, 0.05% surfactant). Assay was performed at 12° C. using Biacore T200 and CM5 sensor chips with anti-human IgG (Pierce) amine-coupled in all 4 flow cells to ˜2000 RU.
(§2) Separate test mAbs were captured in flowcells 2, 3 & 4 (flowcell 1 was reference, no test mAb). All 4 flowcells were then blocked by injection with isotype control mAb at 50 ug/ml. All 4 flowcells were then injected with antigen or buffer only (buffer only is for double referencing, done for each mAb pair individually). All 4 flowcells were then injected with 2nd test mAb at 10 ug/ml. All 4 flowcells were then regenerated with glycine, pH1.5.

[2] = biological target: T1, human PRLR (Biacore antigen); assay: SPR simultaneous binding; PRLR held by surface mAb chAb7
Protocol: as §1, §2

[3] = biological target: T2, cyno PRLR ECD-his6 protein; assay: ELISA on ECD
Procedure, shortened: (§3)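 EC50 values derive from fitted binding curves of antibody serial dilutions (1 h) on captured PRLR. Detection used an HRP-conjugated secondary (1 h), TMB development for 3–5 min, an H₂SO₄ stop and a 450 nm read, with all steps in Tween/PBS pH 7.4 buffer.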

[4] = biological target: T3, human PRLR ECD-Fc fusion protein; assay: ELISA on ECD
Procedure, shortened: as §3

[5] = biological target: T1, human PRLR (Biacore antigen); assay: SPR simultaneous binding; PRLR held by surface mAb Ab48
Protocol: as §1, §2

[6] = biological target: T1, human PRLR (Biacore antigen); assay: SPR simultaneous binding; PRLR held by surface mAb Ab49
Protocol: as §1, §2

[7] = biological target: T1, human PRLR (Biacore antigen); assay: SPR simultaneous binding; PRLR held by surface mAb chAb8
Protocol: as §1, §2

[8] = biological target: cyno PRLR on Baf3-cyPRLR cells (cyno); assay: cell-based or functional assay
human PRLR on cells = biological target: T4, human PRLR on cells; assay: cell-based or functional assay
[9] = biological target: T1, human PRLR (Biacore antigen); assay: SPR simultaneous binding; PRLR held by surface mAb Ab40
Protocol: as §1, §2

[10] = biological target: T1, human PRLR (Biacore antigen); assay: SPR simultaneous binding; PRLR held by surface mAb chAb5
Protocol: as §1, §2

| Binder | solution mAb binding, % of PRLR binding [1] | solution mAb binding, % of PRLR binding [2] | EC50 [3] | EC50 [4] | solution mAb binding, % of PRLR binding [5] | solution mAb binding, % of PRLR binding [6] | solution mAb binding, % of PRLR binding [7] | Baf3-cyPRLR proliferation IC50 [8] | Baf3-hPRLR proliferation IC50 (human PRLR on cells) | T47D pPRLR ELISA IC50 (human PRLR on cells) | solution mAb binding, % of PRLR binding [9] | solution mAb binding, % of PRLR binding [10] |
| --- | --- | --- | --- | --- | --- | --- | --- | --- | --- | --- | --- | --- |
| B1 | -2% | 39% | 0.154 nM | 0.053 nM | -1% | 1% | 1% | > 30 µg/mL | 0.56 µg/mL | 0.069 µg/mL | 40% | 32% |
| B2 | 102% | 0% | 0.103 nM | 0.098 nM | 8% | 7% | 7% | 0.42 µg/mL | 0.15 µg/mL |  | -2% | 0% |
| B3 | 48% | 0% | 0.118 nM | 0.151 nM | 1% | 2% | 2% | 1.9 µg/mL | 1.2 µg/mL |  | -2% | -1% |
| B4 | -2% | 0% | 0.361 nM | 0.0954 nM | 0% | -1% | -1% | 3.49 µg/mL | 0.37 µg/mL |  | -3% | 0% |
| B5 | -2% | 0% | 0.236 nM | 0.0746 nM | -1% | -2% | -1% | 4.87 µg/mL | 0.4 µg/mL |  | -2% | 0% |
| B6 | -2% | 0% | 0.191 nM | 0.08 nM | -1% | -1% | -1% | 2.94 µg/mL | 0.3 µg/mL |  | -2% | 0% |
| B7 | 90% | 1% | 0.072 nM | 0.103 nM | 0% | 0% | 0% | 12.2 µg/mL | 0.28 µg/mL |  | -2% | 0% |
